Assay [1] deals with M. musculus (C57BL/6) IL4Rα extracellular domain (M. musculus (C57BL/6)) (UniProt P16382). Nature of the assay: SPR; BIAcore 2000; about 1400 RU of IL4Rα immobilised on a CM5 chip by amine linkage; graded doses of IL4 in the mobile phase; HBS-EP (10 mM HEPES pH 7.4, 150 mM NaCl, 3 mM EDTA, 0.005% P-20); 25°C; flow 3 μl/min; 1:1 Langmuir fit; average of two independent experiments on two chips. (In general: In SPR one partner is held on a chip, and binding of the other changes the refractive index at the surface.)

The next assay concerns the target γc (Homo sapiens) (UniProt P31785). Particulars: cited from earlier work.
Another assay addresses IL13Rα1 (Homo sapiens) (UniProt P78552). Particulars: cited from earlier work.
For the next assay, the target named is IL4Rα (Homo sapiens) (UniProt P24394). Particulars: cited from earlier work.
UniProt P24394, sequence (P24394 26-232): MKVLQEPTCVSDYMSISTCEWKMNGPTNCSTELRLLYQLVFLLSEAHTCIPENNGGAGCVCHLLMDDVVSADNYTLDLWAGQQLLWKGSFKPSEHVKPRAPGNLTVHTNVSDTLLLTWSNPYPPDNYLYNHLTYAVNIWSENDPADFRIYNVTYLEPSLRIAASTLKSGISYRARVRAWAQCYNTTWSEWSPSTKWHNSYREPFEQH

UniProt P16382, sequence (P16382 26-233): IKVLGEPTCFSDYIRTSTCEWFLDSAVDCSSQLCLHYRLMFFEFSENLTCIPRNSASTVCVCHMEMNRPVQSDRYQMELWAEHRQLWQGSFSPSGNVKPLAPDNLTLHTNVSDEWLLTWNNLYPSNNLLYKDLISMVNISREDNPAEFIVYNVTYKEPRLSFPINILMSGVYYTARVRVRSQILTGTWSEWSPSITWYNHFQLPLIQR
UniProt P31785, sequence (P31785 23-262): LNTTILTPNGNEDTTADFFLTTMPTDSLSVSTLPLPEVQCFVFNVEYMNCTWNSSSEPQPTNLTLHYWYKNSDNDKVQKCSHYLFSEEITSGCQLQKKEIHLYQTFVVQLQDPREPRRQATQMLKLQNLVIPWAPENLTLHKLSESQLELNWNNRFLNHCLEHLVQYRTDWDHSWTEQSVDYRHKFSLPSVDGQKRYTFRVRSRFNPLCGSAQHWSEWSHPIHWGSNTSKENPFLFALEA
UniProt P78552, sequence (P78552 22-343): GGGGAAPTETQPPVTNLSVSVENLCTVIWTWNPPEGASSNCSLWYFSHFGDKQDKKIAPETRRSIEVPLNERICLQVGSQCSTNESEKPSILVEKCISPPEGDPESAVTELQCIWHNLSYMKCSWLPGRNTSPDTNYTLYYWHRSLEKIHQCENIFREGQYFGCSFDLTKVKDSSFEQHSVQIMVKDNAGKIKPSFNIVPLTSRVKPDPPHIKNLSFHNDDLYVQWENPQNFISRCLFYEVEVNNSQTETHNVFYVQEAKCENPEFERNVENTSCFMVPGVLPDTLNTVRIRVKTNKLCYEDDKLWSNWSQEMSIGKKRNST
IL4, sequence (P05112 25-153): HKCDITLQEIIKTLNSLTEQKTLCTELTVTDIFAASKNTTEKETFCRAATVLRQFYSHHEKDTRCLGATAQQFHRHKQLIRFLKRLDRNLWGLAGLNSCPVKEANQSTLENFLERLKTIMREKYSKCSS

Take “recombinant CAST/Ei IL4 (interleukin-4, Mus musculus castaneus allotype) (from UniProt P07750 21-140) (ligand)”: in assay [1], the Ka stood at 4.44e+09 M⁻¹, the Kd is 0.226 nM, the koff turned out to be 0.000713 s⁻¹ and the on-rate (kon) turned out to be 3.16e+06 M⁻¹ s⁻¹.
In the case of IL4/IL4Rα complex (from UniProt P05112), the Kd with γc (Homo sapiens) and in the assay with IL13Rα1 (Homo sapiens) was 500 nM throughout.
Turning to IL4 (from UniProt P05112), in the assay with IL4Rα (Homo sapiens), the Kd was 1 nM.

What is called Kd is the concentration at which binding is half-saturated. The koff is the first-order rate constant of dissociation. The low end stands for a long-lived complex, the high end for a short-lived complex. One may read the kon as the second-order rate constant of association. Read a high kon as faster complex formation.
